Source: patent publication US20210163536A1
Bridges are numbered along the chain shown (N, C = ends). [ ]: non-standard residue; d: D form.

Columns and labels:
[1] = molecular target: human melanocortin-3 receptor (human) (UniProt P41968); experiment: cell-based or functional assay
[2] = molecular target: human melanocortin-4 receptor (human) (UniProt P32245); experiment: cell-based or functional assay
[3] = molecular target: human melanocortin-1 receptor (human) (UniProt Q01726); experiment: competition with [125I]-NDP-alpha-MSH, CHO-K1 cell membranes
[4] = molecular target: human melanocortin-3 receptor (human) (UniProt P41968); experiment: as above
[5] = molecular target: human melanocortin-4 receptor (human) (UniProt P32245); experiment: as above

Sequence of human melanocortin-4 receptor (human) (P32245 whole entry): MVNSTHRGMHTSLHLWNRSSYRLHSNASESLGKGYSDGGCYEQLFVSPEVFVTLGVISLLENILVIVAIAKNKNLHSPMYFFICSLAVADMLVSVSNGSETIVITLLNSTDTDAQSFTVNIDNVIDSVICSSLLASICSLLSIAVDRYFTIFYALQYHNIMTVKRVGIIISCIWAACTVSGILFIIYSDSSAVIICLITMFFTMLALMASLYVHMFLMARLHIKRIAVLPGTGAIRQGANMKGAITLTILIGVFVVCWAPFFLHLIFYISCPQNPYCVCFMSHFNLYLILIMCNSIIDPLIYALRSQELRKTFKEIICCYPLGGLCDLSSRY
Sequence of human melanocortin-3 receptor (human) (P41968 whole entry): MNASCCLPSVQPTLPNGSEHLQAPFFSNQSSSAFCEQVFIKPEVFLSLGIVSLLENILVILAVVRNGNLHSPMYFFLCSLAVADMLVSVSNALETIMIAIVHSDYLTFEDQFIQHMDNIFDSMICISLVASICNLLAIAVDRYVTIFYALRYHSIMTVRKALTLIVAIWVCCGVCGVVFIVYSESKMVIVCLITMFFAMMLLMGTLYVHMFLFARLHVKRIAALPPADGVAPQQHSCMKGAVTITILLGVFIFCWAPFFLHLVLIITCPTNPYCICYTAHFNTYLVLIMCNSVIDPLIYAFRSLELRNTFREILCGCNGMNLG
Sequence of human melanocortin-1 receptor (human) (Q01726 whole entry): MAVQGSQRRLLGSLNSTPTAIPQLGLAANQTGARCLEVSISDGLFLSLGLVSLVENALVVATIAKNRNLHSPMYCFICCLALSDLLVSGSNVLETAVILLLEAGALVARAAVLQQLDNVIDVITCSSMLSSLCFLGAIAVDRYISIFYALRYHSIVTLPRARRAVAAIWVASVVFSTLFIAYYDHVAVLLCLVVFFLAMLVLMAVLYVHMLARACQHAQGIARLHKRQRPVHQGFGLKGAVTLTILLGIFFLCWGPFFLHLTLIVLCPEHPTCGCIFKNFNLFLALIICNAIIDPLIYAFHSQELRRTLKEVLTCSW

B1: cyclo[Hydantoin(C(O)-(Glu-D-Ala))-His-D-Phe-Arg-Trp-Lys]-NH2 (peptide)
peptide: H[dF]RWK-NH2
modifications: lactam N-5; not fully specified (N-terminus); printed as cyclo[Hydantoin(C(O)-(Glu-D-Ala))-His-D-Phe-Arg-Trp-Lys]-NH2; also: hydantoin ring from Glu and D-Ala with C(O) joining their backbone nitrogens
EC50, intracellular cyclic AMP (cAMP) levels [1]: 22.3 nM | EC50, intracellular cyclic AMP (cAMP) levels [2]: 3.62 nM | Ki [3]: 72.6 nM | Ki [4]: 1920 nM | Ki [5]: 45.2 nM
